Results published in publication PMC12196904.

Target: T1, OsARF25 B3 domain (OsARF25 123-243-GST) (Oryza sativa) (UniProt Q2QM84)
T1 sequence: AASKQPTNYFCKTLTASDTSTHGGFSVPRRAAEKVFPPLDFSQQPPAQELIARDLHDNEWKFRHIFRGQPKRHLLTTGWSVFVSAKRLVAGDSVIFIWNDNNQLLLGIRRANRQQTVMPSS
Assay: EMSA
Settings: 20 uL: 50 ng probe, 2 ug protein, 2 uL 10x buffer (100 mM Tris, 500 mM KCl, 10 mM DTT, pH 7.5) plus 1 uL each of 1 M KCl, 50% glycerol, 0.5 M EDTA

GAGTTTTATATACATACAGAGCACATGCGGCATCAATGAGCAACAGGGTTTGCATGCGTTGCTGCTGCTTGAGTTCTAGTATTAGTATTTTTATTTCATCTTAATGCTTGAGCCAATAGTTCCTGAGCTGAGACATGTGCAGAAGTATCTCGTCTCGGCCTTGATTGGTGACACTGCTCGTCATGATCCAAGGGGGTGCTGCCTCAAAATATTCACGGATCGAATTCAAGCTTTTCAATTCATCA (double strand) [proOsOFP04 probe]
binding: binds

TGATGAATTGAAAAGCTTGAATTCACTTCACATGCCGGCCACAATTACGGCGTTATTAGGCGGGACATGGGCATAGGAAAACCGGAAAGGTGTCCAAGGCGTTGCAGAGAATGTAGTGTGTCGGTCATAGGCTGCAAGCGAGTGCACTCCCACTTGCACCCAGGGATATATATTATCGTCATGCATGTGCCTTATGCTCTTGTCAAGCAATATTTTTTGGCAAGGCATGTGCTCTGTATGTATATAAAACTC (double strand) [proSG1 probe]
binding: binds
